The supplement of paper PMC7877785
± gives the uncertainty stated by the source.

Experiment: self-splicing fitness, log relative to wild type (ln ratio); higher = more splicing; Tetrahymena group I intron in knt gene, E. coli kanamycin selection, DiMSum; sequences stand for … in CUCUCU…GGAGGGAAAAGUUAUCAGGCAUGCACCUGGUAGCUAGUCUUUAAACCAAUAGAUUGCAUCGGUUUAAAAGGCAAGACCGUCAAAUUGCGGGAAAGGGGUCAACAGCCGUUCAGUACCAAGUCUCAGGGGAAACUUUGAGAUGGCCUUGCAAAGGGUAUGGUAAUAAGCUGACGGACAUGGUCCUAACCACGCAGCCAAGUCCUAAGUCAACAGAUCUUCUGUUGAUAUGGAUGCAGUUCACAGACUAAAUGUCGGUCGGGGAAGAUGUAUUCUUCUCAUAAGAUAUAGUCGGACCUCUCCUUAAUGGGAGCUAGCGGAUGAAGUGAUGCAACACUGGAGCCGCUGGGAACUAAUUUGUAUGCGAAAGUAUAUUGAUUAGUUUUGGAGUACUCGUGGUCG
In short: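 Library with all eight P1ex-region intron nucleotides randomised, intron inside the knt kanamycin-resistance gene on pET-22b(+), in E. coli BL21(DE3). Cells grew overnight at 37°C or 30°C on LB agar with or without 25 μg/mL kanamycin (plus 100 μg/mL carbenicillin, 50 μM IPTG, 0.2% rhamnose), in six replicate transformations. Pooled colonies were amplicon-sequenced on Illumina HiSeq 2500. DiMSum fitness is the error-weighted combination of wild-type-normalised replicate fold changes, kanamycin versus none.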

| Sequence | self-splicing fitness (ln) (30 °C) | self-splicing fitness (ln) (37 °C) |
| --- | --- | --- |
| CACCAGCAAUAUUACGCUGG | -5.21 ± 0.25 | -2.41 ± 0.16 |
| CACCAGCAAUAUUACGCUGU | -3.61 ± 0.15 | -2.63 ± 0.19 |
| CACCAGCAAUAUUACGGAGG | -1.85 ± 0.078 | -1.4 ± 0.11 |
| CACCAGCAAUAUUACGGAUC | -1.96 ± 0.08 | -1.32 ± 0.094 |
| CACCAGCAAUAUUACGGCAG | -0.179 ± 0.045 | -0.218 ± 0.063 |
| CACCAGCAAUAUUACGGCCA | -0.747 ± 0.067 | -1.22 ± 0.082 |
| CACCAGCAAUAUUACGGCUA | -1.1 ± 0.083 | -0.202 ± 0.074 |
| CACCAGCAAUAUUACGGCUG | -3.78 ± 0.13 | -1.29 ± 0.083 |
| CACCAGCAAUAUUACGUCCC | -4.07 ± 0.31 | -2.79 ± 0.32 |
| CACCAGCAAUAUUACGUCGU | -3.78 ± 0.13 | -1.83 ± 0.097 |
| CACCAGCAAUAUUACGUCUC | -2.89 ± 0.13 | -2.38 ± 0.21 |
| CACCAGCAAUAUUACGUGAA | -4.03 ± 0.14 | -0.875 ± 0.096 |
| CACCAGCAAUAUUACGUGCU | -3.4 ± 0.11 | -2.7 ± 0.15 |
| CACCAGCAAUAUUACGUUGG | -4.24 ± 0.13 | -2.74 ± 0.13 |
| CACCAGCAAUAUUACGUUUC | -4.36 ± 0.19 | -2.58 ± 0.22 |
| CACGAGCAAUAUUACGAACC | – | -1.7 ± 0.32 |
| CACGAGCAAUAUUACGAACU | – | -1.72 ± 0.38 |
| CACGAGCAAUAUUACGACAC | -2.84 ± 0.23 | -2.18 ± 0.3 |
| CACGAGCAAUAUUACGAGGA | -2.27 ± 0.15 | -2.68 ± 0.16 |
| CACGAGCAAUAUUACGAUCC | – | -1.9 ± 0.47 |
| CACGAGCAAUAUUACGAUCU | – | -1.99 ± 0.27 |
| CACGAGCAAUAUUACGCAGU | -3.4 ± 0.31 | -3.5 ± 0.37 |

| Sequence | self-splicing fitness (ln) (30 °C) | self-splicing fitness (ln) (37 °C) |
| --- | --- | --- |
| CACGAGCAAUAUUACGCAUG | -3.6 ± 0.11 | -2.74 ± 0.15 |
| CACGAGCAAUAUUACGCGGC | – | -1.38 ± 0.22 |
| CACGAGCAAUAUUACGCGUA | -2.23 ± 0.12 | -1.28 ± 0.15 |
| CACGAGCAAUAUUACGCUCG | -4.11 ± 0.39 | -1.3 ± 0.22 |
| CACGAGCAAUAUUACGGCGC | – | -1.73 ± 0.4 |
| CACGAGCAAUAUUACGGUUG | -3.57 ± 0.15 | -1.6 ± 0.12 |
| CACGAGCAAUAUUACGUAGA | -2.34 ± 0.095 | -3.42 ± 0.29 |
| CACGAGCAAUAUUACGUCAU | -3.65 ± 0.19 | -2.49 ± 0.21 |
| CACGAGCAAUAUUACGUCUU | -2.89 ± 0.22 | -2.82 ± 0.24 |
| CACGAGCAAUAUUACGUUCA | -2.99 ± 0.18 | -2.49 ± 0.24 |
| CACGAGCAAUAUUACGUUCC | -2.89 ± 0.34 | -2.15 ± 0.34 |
| CACGAGCAAUAUUACGUUGG | -3.11 ± 0.16 | -1.79 ± 0.14 |
| CACGAGCAAUAUUACGUUGU | -3.37 ± 0.15 | -2.8 ± 0.18 |
| CACUAGCAAUAUUACGAAUG | -1.7 ± 0.075 | -1.01 ± 0.086 |
| CACUAGCAAUAUUACGAGGA | -4.01 ± 0.31 | -1.49 ± 0.15 |
| CACUAGCAAUAUUACGAUUU | -2.4 ± 0.12 | -2.2 ± 0.15 |
| CACUAGCAAUAUUACGCCGA | -2.8 ± 0.21 | -1.49 ± 0.17 |
| CACUAGCAAUAUUACGCGCC | -2.9 ± 0.23 | -1.22 ± 0.22 |
| CACUAGCAAUAUUACGCGGG | -2.48 ± 0.13 | -2.01 ± 0.15 |
| CACUAGCAAUAUUACGCUGU | -3.17 ± 0.14 | -3.3 ± 0.23 |
| CACUAGCAAUAUUACGGAUU | -4.22 ± 0.2 | -2.28 ± 0.12 |
| CACUAGCAAUAUUACGGCCA | -3.1 ± 0.23 | – |
